Measurements as given in patent US20260070986A1 (AFFIMED, published 2026).

Assays:
[1] = biological target: T1, recombinant human CD16A 158F, biotinylated mFc.silenced/Avi-tagged (human, UniProt P08637 17-208, biotinylated (Avi-tag)); assay: SPR (Biacore), 37 °C, multi-cycle kinetics, biotin-captured antigen as ligand, antibody construct as analyte, 1:1 binding model
T1 construct: not shown: silenced mouse Fc (mFc.silenced) and Avi-tag
Description: (§1) After each cycle, chip surfaces were regenerated with 6M guanidine-HCl, 0.25M NaOH and reloaded with Biotin Capture reagent. Interaction kinetics were determined by fitting data from multi-cycle kinetics experiments to a simple 1:1 interaction model using the local data analysis option (Rmax and RI) available within Biacore T200 Evaluation Software (v3.1). Referencing was done against a flow cell without captured ligand (Fc2-Fc1, Fc4-Fc3).
(§2) Affinity and kinetic parameters were evaluated for interaction with human CD16A and cynomolgus CD16 using a 1:1 Binding model.

[2] = biological target: T2, recombinant human CD16A 158V, biotinylated mFc.silenced/Avi-tagged (human, UniProt P08637 17-208, biotinylated (Avi-tag)); assay: as above
T2 construct: not shown: silenced mouse Fc (mFc.silenced) and Avi-tag
T2 sequence (P08637 17-208 F176V limits assumed): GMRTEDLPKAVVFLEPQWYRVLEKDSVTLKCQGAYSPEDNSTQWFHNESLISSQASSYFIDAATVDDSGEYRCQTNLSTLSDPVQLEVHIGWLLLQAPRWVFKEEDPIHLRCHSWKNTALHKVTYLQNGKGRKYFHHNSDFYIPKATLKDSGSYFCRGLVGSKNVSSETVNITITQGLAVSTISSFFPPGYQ
Description: as §1, §2

[3] = biological target: T3, recombinant cynomolgus CD16, biotinylated mFc.silenced/Avi-tagged (cynomolgus, UniProt Q8SPW2 17-208, biotinylated (Avi-tag)); assay: as above
T3 construct: not shown: silenced mouse Fc (mFc.silenced) and Avi-tag
T3 sequence (Q8SPW2 17-208): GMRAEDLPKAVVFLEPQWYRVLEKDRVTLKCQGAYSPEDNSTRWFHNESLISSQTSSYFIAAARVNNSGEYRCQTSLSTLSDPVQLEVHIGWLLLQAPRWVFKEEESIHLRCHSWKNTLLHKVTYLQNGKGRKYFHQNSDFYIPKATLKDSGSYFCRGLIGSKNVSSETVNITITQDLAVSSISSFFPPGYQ
Description: as §1, §2

[4] = biological target: T4, CD123 on CD123+ cells (EOL-1 and other CD123+ tumour or patient cells) (human, UniProt P26951 19-378); assay: flow cytometry on CD123+ EOL-1 cells, anti-human IgG-APC detection
T4 construct: whole, on cells; also called interleukin-3 receptor
T4 sequence (P26951 19-378): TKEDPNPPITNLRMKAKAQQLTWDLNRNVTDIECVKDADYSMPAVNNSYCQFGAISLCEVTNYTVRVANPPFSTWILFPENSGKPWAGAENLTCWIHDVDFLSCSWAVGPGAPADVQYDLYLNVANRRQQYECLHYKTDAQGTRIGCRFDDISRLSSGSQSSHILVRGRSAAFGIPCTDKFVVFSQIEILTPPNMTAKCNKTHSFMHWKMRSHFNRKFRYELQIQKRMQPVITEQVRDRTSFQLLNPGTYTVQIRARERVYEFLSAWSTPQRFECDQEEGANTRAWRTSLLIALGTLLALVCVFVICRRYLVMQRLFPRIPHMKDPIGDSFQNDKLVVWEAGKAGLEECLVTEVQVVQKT
Description: To analyze binding of CD123xCD16A antibody constructs to CD123+ EOL-1 cells, CD123− A-431 cells and CD123− Karpas-299 cells by flow cytometry, 1×10⁵ cells were resuspended in 100 μL FACS buffer in round-bottom 96-well microtiter plates. After washing in FACS buffer, cells were incubated in 100 μL FACS buffer without antibodies or with titrated antibodies starting at a concentration of 100 μg/mL followed by eight 10-fold serial dilutions for 45 min on ice in the dark. After washing twice, cells were incubated with APC-conjugated goat anti-human IgG (H+L)-APC (1/200 dilution) for 30 min on ice in the dark. After washing, binding was measured by flow cytometry and mean fluorescence intensities (MFI) of cell samples were calculated and corrected for background staining using control cells stained with secondary antibodies only.

T1 sequence (P08637 17-208): as the sequence (P08637 17-208 F176V limits assumed) above, with V160F counted along it

Kd [1] | koff [1] | kon [1] | Kd [2] | koff [2] | kon [2] | Kd [3] | koff [3] | kon [3] | EC50 (read off the curve) [4] | Binder
0.567 nM | 0.0036 s⁻¹ | 6.4e+06 M⁻¹ s⁻¹ | 0.43 nM | 0.0027 s⁻¹ | 6.3e+06 M⁻¹ s⁻¹ | 2.4 nM | 0.013 s⁻¹ | 5.2e+06 M⁻¹ s⁻¹ | ~0.4 nM | scFv-IgAb_264 (CD123-2xCD16a2) (bispecific antibody, also called CD123xCD16A ICE) chain 1: QVQLVQSGAEVKKPGASVKMSCKASGYTFTDYYMKWVKQAPGQGLEWIGDIIPSNGATFYNQKFKGKATLTVDRSISTAYMHLNRLRSDDTAVYYCTRSHLLRASWFAYWGQGTLVTVSSASTKGPSVFPLAPSSKSTSGGTAALGCLVKDYFPEPVTVSWNSGALTSGVHTFPAVLQSSGLYSLSSVVTVPSSSLGTQTYICNVNHKPSNTKVDKKVEPKSCDKTHTCPPCPAPEFEGGPSVFLFPPKPKDTLMISRTPEVTCVVVAVSHEDPEVKFNWYVDGVEVHNAKTKPREEQYNSTYRVVSVLTVLHQDWLNGKEYKCKVSNKALPAPIEKTISKAKGQPREPQVYTLPPSREEMTKNQVSLTCLVKGFYPSDIAVEWESNGQPENNYKTTPPVLDSDGSFFLYSKLTVDKSRWQQGNVFSCSVMHEALHNHYTQKSLSLSPGGGGGSGGGGSGGGGSGGGGSGGGGSGGGGSSYELTQPLSVSVALGQTARITCGGHNIGSKNVHWYQQKPGQAPVLVIYQDNKRPSGIPERFSGSNSGNTATLTISRAQAGDEADYYCQVWDNYNVLFGCGTKLTVLGGSGGSGGSGGSGGSGGSGGSQVQLVQSGAEVKKPGASVKVSCKASGYTFTSYYMHWVRQAPGQCLEWMGAIEPRYGSTSYAQKFQGRVTMTRDTSTSTVYMELSSLRSEDTAVYYCARGSAYYYDFADYWGQGTLVTVSS chain 2: not shown
 |  |  |  |  |  |  |  |  | ~0.4 nM | scFv-IgAb_265 (CD123-1xCD16a2) (bispecific antibody) chain 1: QVQLQQSGAEVKKPGASVKVSCKASGYTFTDYYMKWVKQSHGKSLEWMGDIIPSNGATFYNQKFKGKATLTVDRSTSTAYMELSSLRSEDTAVYYCARSHLLRASWFAYWGQGTLVTVSSASTKGPSVFPLAPSSKSTSGGTAALGCLVKDYFPEPVTVSWNSGALTSGVHTFPAVLQSSGLYSLSSVVTVPSSSLGTQTYICNVNHKPSNTKVDKKVEPKSCDKTHTCPPCPAPEFEGGPSVFLFPPKPKDTLMISRTPEVTCVVVAVSHEDPEVKFNWYVDGVEVHNAKTKPREEQYNSTYRVVSVLTVLHQDWLNGKEYKCKVSNKALPAPIEKTISKAKGQPREPQVYTLPPSREEMTKNQVSLTCLVKGFYPSDIAVEWESNGQPENNYKTTPPVLDSDGSFFLYSKLTVDKSRWQQGNVFSCSVMHEALHNHYTQKSLSLSPGGGGGSGGGGSGGGGSGGGGSGGGGSGGGGSSYELTQPLSVSVALGQTARITCGGHNIGSKNVHWYQQKPGQAPVLVIYQDNKRPSGIPERFSGSNSGNTATLTISRAQAGDEADYYCQVWDNYNVLFGCGTKLTVLGGSGGSGGSGGSGGSGGSGGSQVQLVQSGAEVKKPGASVKVSCKASGYTFTSYYMHWVRQAPGQCLEWMGAIEPRYGSTSYAQKFQGRVTMTRDTSTSTVYMELSSLRSEDTAVYYCARGSAYYYDFADYWGQGTLVTVSS chain 2: not shown
